In publication PMC10508983, “Nucleotide-free structures of KIF20A illuminate atypical mechanochemistry in this kinesin-6” (Open Biology, 2023):

B1: KIF20A 1–665 (His-tagged dimeric motor construct) (domain or fragment, mouse, UniProt P97329 1-665, looked up)
chain: MSHRILSPPAGLLSDEDVVDSPILESTAADLRSVVRKDLLSDCSVISASLEDKQALLEDTSEKVKVYLRIRPFLTSELDRQEDQGCVCIENTETLVLQAPKDSFALKSNERGVGQATHKFTFSQIFGPEVGQVAFFNLTMKEMVKDVLKGQNWLIYTYGVTNSGKTYTIQGTSKDAGILPQSLALIFNSLQGQLHPTPDLKPLLSNEVIWLDSKQIRQEEMKKLSLLIGGLQEEELSTSVKKRVHTESRIGASNSFDSGVAGLSSTSQFTSSSQLDETSQLWAQPDTVPVSVPADIRFSVWISFFEIYNELLYDLLEPPSHQHKRQTLRLCEDQNGNPYVKDLNWIHVRDVEEAWKLLKVGRKNQSFASTHMNQQSSRSHSIFSIRILHLQGEGDIVPKISELSLCDLAGSERCKHQKSGERLKEAGNINTSLHTLGRCIAALRQNQQNRSKQNLIPFRDSKLTRVFQGFFTGRGRSCMIVNVNPCASTYDETLHAAKFSALASQLVHAPPVHLGIPSLHSFIKKHSPQVGPGLEKEDKADSDLEDSPEDEADVSVYGKEELLQVVEAMKALLLKERQEKLQLEIQLREEICNEMVEQMQQREQWCSERLDNQKELMEELYEEKLKILKESLTTFYQEQIQERDEKIEELETLLQEAKQQPAAQQ
notes: source: E. coli NiCO21 (DE3), purified (chitin resin, HisTrap HP, size-exclusion chromatography); not shown: His6, C-terminal, kept
B2: KIF20A 25–665 (domain or fragment, mouse, UniProt P97329 25-665, looked up)
chain: ESTAADLRSVVRKDLLSDCSVISASLEDKQALLEDTSEKVKVYLRIRPFLTSELDRQEDQGCVCIENTETLVLQAPKDSFALKSNERGVGQATHKFTFSQIFGPEVGQVAFFNLTMKEMVKDVLKGQNWLIYTYGVTNSGKTYTIQGTSKDAGILPQSLALIFNSLQGQLHPTPDLKPLLSNEVIWLDSKQIRQEEMKKLSLLIGGLQEEELSTSVKKRVHTESRIGASNSFDSGVAGLSSTSQFTSSSQLDETSQLWAQPDTVPVSVPADIRFSVWISFFEIYNELLYDLLEPPSHQHKRQTLRLCEDQNGNPYVKDLNWIHVRDVEEAWKLLKVGRKNQSFASTHMNQQSSRSHSIFSIRILHLQGEGDIVPKISELSLCDLAGSERCKHQKSGERLKEAGNINTSLHTLGRCIAALRQNQQNRSKQNLIPFRDSKLTRVFQGFFTGRGRSCMIVNVNPCASTYDETLHAAKFSALASQLVHAPPVHLGIPSLHSFIKKHSPQVGPGLEKEDKADSDLEDSPEDEADVSVYGKEELLQVVEAMKALLLKERQEKLQLEIQLREEICNEMVEQMQQREQWCSERLDNQKELMEELYEEKLKILKESLTTFYQEQIQERDEKIEELETLLQEAKQQPAAQQ
notes: source: E. coli NiCO21 (DE3), purified (chitin resin, HisTrap HP, size-exclusion chromatography)
B3: KIF20A 55–665 (domain or fragment, mouse, UniProt P97329 55-665, looked up)
chain: ALLEDTSEKVKVYLRIRPFLTSELDRQEDQGCVCIENTETLVLQAPKDSFALKSNERGVGQATHKFTFSQIFGPEVGQVAFFNLTMKEMVKDVLKGQNWLIYTYGVTNSGKTYTIQGTSKDAGILPQSLALIFNSLQGQLHPTPDLKPLLSNEVIWLDSKQIRQEEMKKLSLLIGGLQEEELSTSVKKRVHTESRIGASNSFDSGVAGLSSTSQFTSSSQLDETSQLWAQPDTVPVSVPADIRFSVWISFFEIYNELLYDLLEPPSHQHKRQTLRLCEDQNGNPYVKDLNWIHVRDVEEAWKLLKVGRKNQSFASTHMNQQSSRSHSIFSIRILHLQGEGDIVPKISELSLCDLAGSERCKHQKSGERLKEAGNINTSLHTLGRCIAALRQNQQNRSKQNLIPFRDSKLTRVFQGFFTGRGRSCMIVNVNPCASTYDETLHAAKFSALASQLVHAPPVHLGIPSLHSFIKKHSPQVGPGLEKEDKADSDLEDSPEDEADVSVYGKEELLQVVEAMKALLLKERQEKLQLEIQLREEICNEMVEQMQQREQWCSERLDNQKELMEELYEEKLKILKESLTTFYQEQIQERDEKIEELETLLQEAKQQPAAQQ
notes: as for B2

Target: the molecule itself
Experiment: SEC-MALS; 5 mg ml^-1 of each protein injected into a Superdex 200 10/30 Increase column; MALS and refractive index

| Protein | stoichiometry N |
| --- | --- |
| B1 | 2 |
| B2 | 2 |
| B3 | 2 |
